Laboratory results taken from the supplement of paper PMC9876800.

Test system: peptide library, one residue held at a place counted from the S/T acceptor
Assay: relative phosphorylation of the sub-library (ratio to the mean residue at this position); higher = residue favoured
Method in brief: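 Relative sub-library phosphorylation, a ratio to the mean residue at that position, was obtained by phosphorimaging and densitometry of spots on streptavidin membranes. Before capture, purified recombinant kinases were incubated for 90 min under kinase-specific conditions with 50 μM biotinylated degenerate peptide sub-libraries and 50 μM ATP spiked with γ-32P-ATP. Each sub-library fixed one residue at one position around a central Ser/Thr.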

Sequence of CDK4, construct: Full length, human (P11802 whole entry, looked up): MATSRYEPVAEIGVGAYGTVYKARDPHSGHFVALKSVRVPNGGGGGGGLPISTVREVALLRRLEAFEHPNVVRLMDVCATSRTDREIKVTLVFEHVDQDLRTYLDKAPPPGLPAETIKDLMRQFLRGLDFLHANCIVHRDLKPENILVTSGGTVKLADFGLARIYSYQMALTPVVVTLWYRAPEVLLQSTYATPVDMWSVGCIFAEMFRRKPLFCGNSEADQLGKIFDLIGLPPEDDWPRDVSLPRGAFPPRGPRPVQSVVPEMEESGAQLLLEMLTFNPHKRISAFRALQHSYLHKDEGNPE
Sequence of CAMK2B, construct: Full length, human (Q13554 whole entry, looked up): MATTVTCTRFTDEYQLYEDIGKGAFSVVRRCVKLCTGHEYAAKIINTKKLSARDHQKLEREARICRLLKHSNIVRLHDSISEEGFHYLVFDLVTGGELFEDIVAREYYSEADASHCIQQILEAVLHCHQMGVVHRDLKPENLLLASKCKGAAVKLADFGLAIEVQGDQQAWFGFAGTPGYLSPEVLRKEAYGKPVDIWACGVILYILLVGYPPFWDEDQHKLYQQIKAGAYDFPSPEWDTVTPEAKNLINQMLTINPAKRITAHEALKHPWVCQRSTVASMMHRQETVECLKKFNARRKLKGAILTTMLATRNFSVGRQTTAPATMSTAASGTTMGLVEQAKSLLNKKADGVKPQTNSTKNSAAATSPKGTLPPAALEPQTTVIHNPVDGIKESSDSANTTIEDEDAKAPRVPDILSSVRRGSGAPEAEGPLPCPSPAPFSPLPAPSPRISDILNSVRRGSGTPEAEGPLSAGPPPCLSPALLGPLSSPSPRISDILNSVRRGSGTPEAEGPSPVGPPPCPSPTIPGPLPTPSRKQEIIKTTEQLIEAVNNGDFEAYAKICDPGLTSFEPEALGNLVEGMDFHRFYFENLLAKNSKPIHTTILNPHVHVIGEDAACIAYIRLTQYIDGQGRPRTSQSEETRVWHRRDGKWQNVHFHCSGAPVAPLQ

CAMK2B, construct: Full length, human (from UniProt Q13554)
relative phosphorylation
Conditions	at +1	at +2	at +3	at +4	at -1	at -2	at -3	at -4	at -5
A fixed	0.454	0.673	1.07	0.895	0.744	1.02	0.589	0.903	0.883
D fixed	0.842	4.46	2.37	2.5	1.57	0.86	0.527	0.849	0.702
E fixed	1.45	3.53	2.59	2.45	1.32	1.05	0.627	1.21	0.659
F fixed	2.27	0.366	0.6	0.619	0.736	0.523	0.58	0.852	1.19
G fixed	0.573	0.828	1.26	1.09	1.06	1.46	0.774	1.04	0.836
H fixed	0.758	0.895	0.881	0.893	1.15	1.1	1.03	1.04	0.803
I fixed	1.52	0.405	0.575	0.529	0.482	0.336	0.325	0.729	1.08
K fixed	0.457	0.32	0.489	0.459	1.01	0.848	2.02	1.29	0.791
L fixed	1.1	0.332	0.729	0.506	0.738	0.367	0.382	0.707	1.71
M fixed	1.52	0.426	0.648	0.612	0.948	1.01	0.652	1.07	1.12
N fixed	0.837	1.3	1.13	1.05	1.48	1.38	0.929	0.983	0.749
P fixed	0.295	0.525	0.932	1.43	1.45	0.471	1.11	1.03	1.05
Q fixed	1.43	1.1	1.14	1.02	1.41	3.49	1.22	1.14	0.893
R fixed	0.566	0.381	0.438	0.458	0.795	1.06	4.44	1.3	1.16
V fixed	1.42	0.467	0.62	0.638	0.592	0.388	0.365	0.815	1.2
W fixed	0.534	0.397	0.701	0.983	0.486	0.992	0.758	0.958	1.16
Y fixed	0.988	0.593	0.827	0.882	1.03	0.651	0.679	1.09	1.03
pThr fixed	1.72	1.39	1.97	3.94	0.586	0.581	0.708	0.806	0.783
pTyr fixed	1.76	4.63	1.88	2.72	1.75	0.651	0.664	0.835	0.902

CDC42BPA, construct: aa1-473, human (from UniProt Q5VT25)
relative phosphorylation
Conditions	at +1	at +2	at +3	at +4	at -1	at -2	at -3	at -4	at -5
A fixed	0.571	0.98	0.605	0.722	0.552	0.403	0.476	0.689	0.776
D fixed	0.475	0.764	0.723	0.799	0.668	0.306	0.342	0.53	0.483
E fixed	0.435	0.379	0.701	0.719	0.436	0.226	0.23	0.498	0.321
F fixed	0.802	1.2	1.15	1.1	0.645	0.519	0.424	0.758	0.814
G fixed	0.849	1.06	1.32	0.933	0.984	0.431	0.442	0.765	0.629
H fixed	0.961	1.06	1.27	1.17	1.27	1.25	1.3	1.22	1.04
I fixed	1.61	1.56	0.911	0.783	0.453	0.267	0.295	0.651	0.688
K fixed	0.961	1.01	1.56	1.21	2.71	2.5	2.6	2.28	3.39
L fixed	1.79	1.52	0.789	0.94	1.33	0.416	0.329	0.709	0.771
M fixed	1.45	0.918	0.745	0.872	1.01	0.507	0.354	0.803	0.632
N fixed	1.84	0.88	0.914	1.15	1.15	0.855	0.534	0.893	0.688
P fixed	0.35	1.1	0.983	1.2	1.28	0.482	0.496	0.995	0.666
Q fixed	1.18	0.681	1.3	1.06	1.13	0.973	0.75	0.847	0.911
R fixed	1.17	0.868	1.01	1.04	1.45	5.97	7.05	3.1	2.99
V fixed	0.898	1.08	0.702	0.777	0.529	0.292	0.282	0.641	0.586
W fixed	0.867	0.952	1.12	1.53	0.605	0.852	0.622	0.902	0.809
Y fixed	0.786	1.01	1.18	0.99	0.798	0.744	0.469	0.718	0.814
pThr fixed	0.636	0.97	0.873	1.38	0.283	0.304	0.369	0.547	0.552
pTyr fixed	1.24	0.795	0.785	1.13	0.396	0.353	0.378	0.441	0.391

CDK2, construct: Full length, human (from UniProt P24941)
relative phosphorylation
Conditions	at +1	at +2	at +3	at +4	at -1	at -2	at -3	at -4	at -5
A fixed	0.422	0.748	0.457	0.579	0.947	0.875	1.06	1.02	1.03
D fixed	0.304	0.611	0.279	0.735	1.08	0.754	0.692	1.01	1.09
E fixed	0.304	0.544	0.265	0.591	0.846	0.701	0.887	1.08	0.998
F fixed	0.365	0.976	0.438	0.837	1.1	1.29	0.928	1.08	1.01
G fixed	0.923	0.664	0.497	1.13	1.39	0.891	1.6	1.03	0.824
H fixed	0.367	1.28	0.871	1.04	0.879	1.21	1.3	1.21	1.17
I fixed	0.409	0.781	0.325	0.92	0.428	0.804	0.877	0.911	0.684
K fixed	0.439	1.91	8.59	1.62	1.01	0.798	0.839	1.02	1.17
L fixed	0.384	0.947	0.358	1.12	1.02	1.27	0.88	0.911	0.787
M fixed	0.407	1.09	0.405	1.3	1.02	1.27	0.895	0.814	0.8
N fixed	0.402	1.08	0.524	1.06	1.01	0.963	0.91	0.888	0.813
P fixed	10.1	0.384	0.626	0.731	0.7	1.3	0.804	0.589	1.1
Q fixed	0.499	1.47	0.665	1.17	1.37	1.09	1.18	1.18	1.13
R fixed	0.494	1.94	1.49	0.939	1.3	0.684	0.88	0.829	1.06
V fixed	0.516	1.08	0.392	0.977	0.643	0.892	1.04	0.907	1
W fixed	0.326	0.667	0.429	1.32	1.34	1.19	1.2	1.4	1.13
Y fixed	0.33	0.82	0.393	0.935	0.92	1.01	1.03	1.1	1.19
pThr fixed	1.22	0.953	1.31	0.611	0.373	0.917	1.01	0.787	0.965
pTyr fixed	2.21	0.603	1.1	0.825	0.766	1.63	1.13	0.938	0.898

CDK4, construct: Full length, human (from UniProt P11802)
relative phosphorylation
Conditions	at +1	at +2	at +3	at +4	at -1	at -2	at -3	at -4	at -5
A fixed	0.244	0.682	0.688	0.766	0.896	0.85	1.04	1	1.02
D fixed	0.173	0.416	0.335	0.58	0.421	0.228	0.387	0.667	0.799
E fixed	0.133	0.337	0.246	0.526	0.504	0.298	0.59	0.844	0.796
F fixed	0.237	0.736	0.778	0.851	0.96	1.06	0.741	0.852	0.797
G fixed	0.746	0.88	0.82	1.11	1.03	0.596	1.4	1.18	1.28
H fixed	0.266	1.32	1.05	1.38	1.02	1.04	1.13	1.09	1.16
I fixed	0.278	1.16	0.428	0.855	0.531	1.01	0.915	0.838	0.917
K fixed	0.29	1.55	1.86	1.2	1.29	0.798	1.21	1.23	1.4
L fixed	0.364	0.967	0.412	0.587	1.28	1.41	0.874	0.808	0.752
M fixed	0.267	1.03	0.566	0.909	1.46	1.28	0.796	0.827	0.813
N fixed	0.258	1.27	0.739	0.976	0.731	0.948	0.856	1.16	1.08
P fixed	12.4	0.481	0.92	0.848	0.94	2.52	1.14	1.08	1.14
Q fixed	0.275	0.789	0.652	0.801	1.27	0.76	0.704	0.832	0.822
R fixed	0.324	2.59	4.48	2.2	1.9	1.39	2.5	1.52	1.6
V fixed	0.302	1.01	0.417	0.636	0.624	0.891	0.889	0.658	0.68
W fixed	0.239	0.624	1.54	1.42	0.996	0.88	0.87	1.28	0.782
Y fixed	0.222	1.16	1.07	1.36	1.13	1.05	0.957	1.13	1.15
pThr fixed	0.323	0.406	0.361	0.422	0.237	0.382	0.592	0.644	0.77
pTyr fixed	0.482	0.391	0.503	0.432	0.357	0.356	0.592	0.544	0.934
